Where no end group is shown, it is not given here.

The record followed here is patent US20140038895A1 (UNIVERSITY OF QUEENSLAND, published 2014).

Assay [1] deals with T1, human RXFP3 (human, UniProt Q9NSD7 1-469).
T1 construct: whole, on cells; also called GPCR135; RXFP3 receptor
T1 sequence (looked up): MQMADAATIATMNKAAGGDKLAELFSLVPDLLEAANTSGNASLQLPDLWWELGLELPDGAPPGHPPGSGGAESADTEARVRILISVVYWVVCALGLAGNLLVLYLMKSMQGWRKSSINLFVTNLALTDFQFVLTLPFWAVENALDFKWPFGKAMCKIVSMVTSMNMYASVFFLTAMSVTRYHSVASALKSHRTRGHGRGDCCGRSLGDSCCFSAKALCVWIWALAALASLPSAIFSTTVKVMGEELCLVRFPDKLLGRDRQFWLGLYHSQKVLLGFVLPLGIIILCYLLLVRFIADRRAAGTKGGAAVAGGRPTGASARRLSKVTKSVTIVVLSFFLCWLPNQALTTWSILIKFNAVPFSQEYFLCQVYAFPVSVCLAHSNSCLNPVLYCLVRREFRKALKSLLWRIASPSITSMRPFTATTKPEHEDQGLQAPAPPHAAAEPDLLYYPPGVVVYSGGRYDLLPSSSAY
The assay can be described thus: competition binding vs Eu-DTPA-R3/I5 on HEK-293T cells stably expressing human RXFP3, time-resolved fluorescence, n = 3.
Description: (§1) Binding assays were carried out as follows. […] The cells were incubated at room temperature for 60 min before the peptide solution was aspirated off and the cells washed with PBS.

Assay [2] concerns the target T2, human RXFP1 (human, UniProt Q9HBX9 1-757).
T2 construct: whole, on cells; also called LGR7; RXFP1 receptor
T2 sequence (looked up): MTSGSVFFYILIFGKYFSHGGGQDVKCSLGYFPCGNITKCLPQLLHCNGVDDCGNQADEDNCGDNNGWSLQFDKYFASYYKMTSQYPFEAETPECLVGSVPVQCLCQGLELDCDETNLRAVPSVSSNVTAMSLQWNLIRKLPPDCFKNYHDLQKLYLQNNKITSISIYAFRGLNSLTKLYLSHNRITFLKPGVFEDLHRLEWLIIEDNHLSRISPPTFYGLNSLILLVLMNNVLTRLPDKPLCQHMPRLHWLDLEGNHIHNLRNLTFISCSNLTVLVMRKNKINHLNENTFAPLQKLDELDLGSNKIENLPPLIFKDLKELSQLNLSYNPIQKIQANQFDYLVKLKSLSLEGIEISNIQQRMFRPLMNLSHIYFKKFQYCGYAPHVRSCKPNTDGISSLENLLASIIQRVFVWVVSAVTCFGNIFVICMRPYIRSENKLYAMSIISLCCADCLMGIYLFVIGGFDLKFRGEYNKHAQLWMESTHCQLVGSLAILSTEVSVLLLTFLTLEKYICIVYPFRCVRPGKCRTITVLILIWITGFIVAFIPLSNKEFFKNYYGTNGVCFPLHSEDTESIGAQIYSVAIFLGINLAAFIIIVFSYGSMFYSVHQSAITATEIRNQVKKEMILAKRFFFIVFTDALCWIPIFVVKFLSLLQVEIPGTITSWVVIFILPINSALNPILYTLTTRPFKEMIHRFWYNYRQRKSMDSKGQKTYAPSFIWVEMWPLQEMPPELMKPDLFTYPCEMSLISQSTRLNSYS
The assay can be described thus: competition binding vs Eu-DTPA-H2 relaxin on HEK-293T cells transfected with RXFP1 (FIG. 7).
Description: as §1

The target of assay [3] is T1, human RXFP3. The assay can be described thus: competition binding vs Eu-DTPA-R3/I5 on HEK-293T cells expressing human RXFP3 (Table 2 cell: 'No activity').
Description: as §1

As a reminder, the pIC50 is −log10 of the IC50, conventionally taken in molar units. A higher pIC50 goes with a small IC50. Consider GVRLSGREFIRAVIFTSR-NH2 (Synthetic single chain peptide) [H3 B6-22R], for which the pIC50 in assay [1] amounted to 6.33.

In assay [1], APYGVRLSGREFIRAVIFTSR-NH2 (Synthetic single chain peptide) [H3 B3-22R] showed a pIC50 of 6.71.

B1: H3 B1-22R (peptide)
peptide: RAAPYGVRLSGREFIRAVIFTSR-NH2
notes: Synthetic single chain peptide; also called R3 B1-22R; R3 1-22R
In the case of B1, in assay [2], the binding result was “binds”. This molecule registered a negative-log IC50 (pIC50) in assay [1] of 7.75.

With RAAPYGVRLAGREFIRAVIFTAR-NH2 (Synthetic single chain peptide) [H3 B1-22R C10/22A], the pIC50 in assay [1] was 6.83.

The molecule RAAPYGVRLSGREFIRAVIFTSR-OH (Synthetic single chain peptide) [H3 B1-22R Acid] returned a pIC50 in assay [1] of 6.46.

On to YGVRLSGREFIRAVIFTSR-NH2 (Synthetic single chain peptide) [H3 B5-22R], for which the pIC50 in assay [1] stood at 6.37.

On to RAAPYGVRLSGREFIRAVIFTS-NH2 (Synthetic single chain peptide) [H3 B1-22], for which the binding result in assay [3] was “no binding”.

Turning to AAPYGVRLSGREFIRAVIFTSR-NH2 (Synthetic single chain peptide) [H3 B2-22R], the pIC50 in assay [1] amounted to 7.06.

B2: H3 B-chain C10/22S (peptide)
peptide: RAAPYGVRLSGREFIRAVIFTSGGSRW-OH
notes: Synthetic single chain peptide; also called H3 relaxin B chain; native H3 B chain
B2 displayed a pIC50 in assay [1] of 5.6.

PYGVRLSGREFIRAVIFTSR-NH2 (Synthetic single chain peptide) [H3 B4-22R] gave a pIC50 in assay [1] of 6.66.

Consider VRLSGREFIRAVIFTSR-NH2 (Synthetic single chain peptide) [H3 B7-22R], for which, in assay [3], the binding result is reported as “no binding”.
